Data on one protein can be found in paper PMC5253651, “Human farnesyl pyrophosphate synthase is allosterically inhibited by its own product” (Nature Communications, 2017).

This series deals with the molecule itself. Kind of series: crystal structure; human FPPS (10 mg/ml) crystallised with 1 mM FPP and 2 mM MgCl2, sitting drop, 22 °C; 1.9 Å; one subunit in the asymmetric unit, biological assembly a homodimer.

B1: Human farnesyl pyrophosphate synthase (enzyme)
chain: MNGDQNSDVYAQEKQDFVQHFSQIVRVLTEDEMGHPEIGDAIARLKEVLEYNAIGGKYNRGLTVVVAFRELVEPRKQDADSLQRAWTVGWCVELLQAFFLVADDIMDSSLTRRGQICWYQKPGVGLDAINDANLLEACIYRLLKLYCREQPYYLNLIELFLQSSYQTEIGQTLDLLTAPQGNVDLVRFTEKRYKSIVKYKTAFYSFYLPIAAAMYMAGIDGEKEHANAKKILLEMGEFFQIQDDYLDLFGDPSVTGKIGTDIQDNKCSWLVVQCLQRATPEQYQILKENYGQKEAEKVARVKALYEELDLPAVFLQYEEDSYSHIMALIEQYAAPLPPAVFLGLARKIYKRRK
notes: Human farnesyl pyrophosphate synthase (FPPS), UniProt P14324 as printed; Crystallised with the small molecule FPP in the allosteric pocket; One subunit in the asymmetric unit; the homodimer arises by crystallographic symmetry; also called FPPS; human FPPS; source: E. coli BL21 (DE3), purified (Ni-nitrilotriacetic acid, Superdex 200 size-exclusion chromatography)
Consider B1, for which the binding result is on record as “binds”.
